Here are results for three molecules from paper PMC3522258.

The target in one series is T1, CTD (human, UniProt O95786 792-925).
T1 sequence: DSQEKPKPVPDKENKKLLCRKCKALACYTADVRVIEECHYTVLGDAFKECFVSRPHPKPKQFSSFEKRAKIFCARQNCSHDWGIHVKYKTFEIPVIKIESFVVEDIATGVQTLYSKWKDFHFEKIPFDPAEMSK
Put plainly: EMSA.

The target in the next series is T2, HD (helicase domain) (human, UniProt O95786 229-793).
T2 sequence: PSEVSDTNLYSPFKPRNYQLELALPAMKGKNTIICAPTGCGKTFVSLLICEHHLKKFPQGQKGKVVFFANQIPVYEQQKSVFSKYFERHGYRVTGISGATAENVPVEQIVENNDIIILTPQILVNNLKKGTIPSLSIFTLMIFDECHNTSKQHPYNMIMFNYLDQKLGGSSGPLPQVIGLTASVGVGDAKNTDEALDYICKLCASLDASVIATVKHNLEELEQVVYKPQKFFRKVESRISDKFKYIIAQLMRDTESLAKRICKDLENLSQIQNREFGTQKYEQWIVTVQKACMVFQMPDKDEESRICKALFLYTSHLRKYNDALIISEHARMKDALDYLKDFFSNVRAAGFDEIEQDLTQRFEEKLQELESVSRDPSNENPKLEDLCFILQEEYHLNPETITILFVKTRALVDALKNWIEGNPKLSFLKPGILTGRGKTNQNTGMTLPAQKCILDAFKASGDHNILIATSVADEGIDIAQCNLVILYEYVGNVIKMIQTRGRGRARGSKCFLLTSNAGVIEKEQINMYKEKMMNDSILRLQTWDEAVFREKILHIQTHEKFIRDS
Briefly: EMSA.

Series [1] concerns the target T3, RIG-I (ΔCARDs) (human, UniProt O95786 229-925).
T3 sequence: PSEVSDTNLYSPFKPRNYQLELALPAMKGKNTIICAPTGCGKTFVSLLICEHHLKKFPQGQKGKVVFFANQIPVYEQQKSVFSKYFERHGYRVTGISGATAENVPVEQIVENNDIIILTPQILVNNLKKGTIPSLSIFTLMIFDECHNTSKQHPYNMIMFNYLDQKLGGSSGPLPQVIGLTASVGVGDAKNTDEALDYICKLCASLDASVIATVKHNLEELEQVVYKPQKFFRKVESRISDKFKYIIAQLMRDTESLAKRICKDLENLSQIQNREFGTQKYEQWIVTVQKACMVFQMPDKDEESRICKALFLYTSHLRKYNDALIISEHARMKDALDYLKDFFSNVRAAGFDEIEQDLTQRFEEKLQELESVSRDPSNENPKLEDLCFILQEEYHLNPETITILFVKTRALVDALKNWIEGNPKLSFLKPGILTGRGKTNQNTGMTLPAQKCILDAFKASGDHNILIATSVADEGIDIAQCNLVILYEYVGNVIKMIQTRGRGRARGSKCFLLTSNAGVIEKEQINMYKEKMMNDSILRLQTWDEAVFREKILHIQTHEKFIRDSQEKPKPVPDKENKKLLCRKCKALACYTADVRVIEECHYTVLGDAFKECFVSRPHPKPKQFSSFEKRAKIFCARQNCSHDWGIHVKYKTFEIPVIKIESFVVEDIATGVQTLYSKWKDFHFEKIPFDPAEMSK
Briefly: EMSA.

A further series concerns the target T4, full-length RIG-I (human, UniProt O95786 1-925).
T4 sequence: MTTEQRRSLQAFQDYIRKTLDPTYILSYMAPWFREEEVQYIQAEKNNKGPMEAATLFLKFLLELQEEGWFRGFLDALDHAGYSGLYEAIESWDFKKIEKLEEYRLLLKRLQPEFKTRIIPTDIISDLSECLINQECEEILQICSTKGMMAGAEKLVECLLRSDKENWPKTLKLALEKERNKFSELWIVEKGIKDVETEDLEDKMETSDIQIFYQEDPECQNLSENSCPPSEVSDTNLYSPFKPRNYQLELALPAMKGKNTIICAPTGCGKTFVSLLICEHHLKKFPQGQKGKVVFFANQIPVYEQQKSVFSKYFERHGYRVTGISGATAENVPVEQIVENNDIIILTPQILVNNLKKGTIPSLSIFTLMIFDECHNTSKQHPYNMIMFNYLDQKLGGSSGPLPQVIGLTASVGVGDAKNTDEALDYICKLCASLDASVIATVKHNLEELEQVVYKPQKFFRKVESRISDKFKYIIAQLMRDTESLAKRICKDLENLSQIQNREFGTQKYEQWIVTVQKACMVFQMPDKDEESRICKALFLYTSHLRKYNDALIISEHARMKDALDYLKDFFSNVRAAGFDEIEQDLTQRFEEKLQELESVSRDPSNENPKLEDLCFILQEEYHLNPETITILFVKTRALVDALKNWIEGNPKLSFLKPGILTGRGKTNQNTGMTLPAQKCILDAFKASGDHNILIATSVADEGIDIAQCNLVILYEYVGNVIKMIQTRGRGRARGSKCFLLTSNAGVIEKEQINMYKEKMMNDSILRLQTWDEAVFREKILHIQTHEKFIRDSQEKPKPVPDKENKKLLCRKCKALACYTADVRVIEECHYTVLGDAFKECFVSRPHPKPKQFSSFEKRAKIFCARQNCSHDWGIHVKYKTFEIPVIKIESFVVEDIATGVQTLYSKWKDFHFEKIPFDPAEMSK
Put plainly: EMSA.

In series [2] the target is T3, RIG-I (ΔCARDs). Briefly: competition.

B1: 5'-ppp 14 dsRNA (dsRNA)
RNA 1: ACCUCCCACCCCCG
RNA 2: CGGGGGUGGGAGGU
modifications: 5'-triphosphate on top strand
For the molecule B1, the Kd was 0.5 ± 0.06 nM with CTD, 760 ± 20 nM with HD (helicase domain), 0.041 ± 0.002 nM in the series with RIG-I (ΔCARDs) [1] and 0.159 ± 0.02 nM with full-length RIG-I.

B2: 5'-OH 14 dsRNA, unlabeled competitor (dsRNA)
RNA 1: ACCUCCCACCCCCG
RNA 2: CGGGGGUGGGAGGU
modifications: 5'-OH
Consider B2, for which the inhibition constant Ki in the series with RIG-I (ΔCARDs) [2] was 13 nM.

B3: 5'-OH 14 dsRNA (dsRNA)
RNA 1: ACCUCCCACCCCCG
RNA 2: CGGGGGUGGGAGGU
modifications: 5'-OH on top strand
With B3, the Kd in the series with CTD worked out at 5900 ± 750 nM; in the series with RIG-I (ΔCARDs) [1] it was 3.6 ± 0.9 nM; with full-length RIG-I, 20 ± 3 nM.
